Patent publication US7833513B2, “Treatment of Alzheimer's Disease” (Rhode Island Hospital, priority 2004, dated 2010)

Molecular target: T1, IGF-II receptor (Homo sapiens, UniProt P11717)
T1 construct: membrane extracts of postmortem frontal lobe tissue as the sources of receptors; from tissue; host or cells: postmortem frontal lobe tissue, homogenates pooled per Braak stage group
Assay: Saturation binding (Scatchard) of [125I]-IGF-II to postmortem frontal lobe membrane extracts by AD Braak stage
Set-up: unit not given here
Procedure: Protein concentration was determined using the bicinchoninic acid (BCA) assay (Pierce, Rockford, Ill.). Preliminary studies determined the amounts of protein and concentrations of radiolabeled ligand required to achieve 20% specific binding.
IGF-I binding assays required 25 μg protein per sample, and IGF-II receptor binding assays were performed with 10 μg protein. Equilibrium binding assays were used to assess growth factor binding levels in relation to AD stage severity. This was accomplished by determining net specific binding after incubating the protein samples at 4° C. overnight with a fixed amount of radioligand, in the presence or absence of excess cold ligand and then subtracting the values obtained for non-specific binding from those corresponding to the total binding. To measure total binding, individual protein samples were incubated in 100 μl reactions containing binding buffer (100 mM HEPES, pH 8.0, 118 mM NaCl, 1.2 mM MgSO4, 8.8 mM dextrose, 5 mM KCl, 1% bovine serum albumin) and 100 nCi/ml [^125I] […] To measure non-specific binding, replicate samples were prepared as indicated with the addition of 0.1 μM unlabeled (cold) ligand.
Saturation binding assays were performed to assess top-level (maximum) binding and binding affinity in relation to AD stage severity. Samples from 8-12 brains per Braak stage group were pooled in equal proportions and used to generate binding curves. Protein concentrations of the pooled homogenates were determined with the BCA assay. Duplicate samples were incubated in 100 μl reaction volumes containing binding buffer and 0.0031 to 1 μCi/ml of [^125I] […] To measure non-specific binding, duplicate reactions were incubated with the same concentrations of radiolabeled ligand plus 0.1 μM unlabeled (cold) competitive ligand. The data were graphed and analyzed using the GraphPad Prism 4 software to calculate the Bmax, kD (dissociation constant), and their standard deviations and 95% confidence intervals.
Reactions were performed in 1.5 ml Eppendorff tubes at 4° C. for 16 hours with gentle platform agitation. […] The samples were counted for 1 minute each in an LKB CompuGamma CS Gamma counter. Specific binding was calculated by subtracting CPM or fmol of non-specific binding, i.e., amount bound in the presence of cold ligand, from the total CPM or fmol bound (absence of unlabeled competitive ligand). After determining that the data fit a one-site rather than a two-site model, the results were analyzed using non-linear regression to calculate saturation binding (Bmax) and binding affinity (kD) with Scatchard analysis performed to measure saturation binding and binding affinity using GraphPad Prism 4 software (GraphPad Software, Inc., San Diego, Calif.).

T1 sequence (P11717 41-2491): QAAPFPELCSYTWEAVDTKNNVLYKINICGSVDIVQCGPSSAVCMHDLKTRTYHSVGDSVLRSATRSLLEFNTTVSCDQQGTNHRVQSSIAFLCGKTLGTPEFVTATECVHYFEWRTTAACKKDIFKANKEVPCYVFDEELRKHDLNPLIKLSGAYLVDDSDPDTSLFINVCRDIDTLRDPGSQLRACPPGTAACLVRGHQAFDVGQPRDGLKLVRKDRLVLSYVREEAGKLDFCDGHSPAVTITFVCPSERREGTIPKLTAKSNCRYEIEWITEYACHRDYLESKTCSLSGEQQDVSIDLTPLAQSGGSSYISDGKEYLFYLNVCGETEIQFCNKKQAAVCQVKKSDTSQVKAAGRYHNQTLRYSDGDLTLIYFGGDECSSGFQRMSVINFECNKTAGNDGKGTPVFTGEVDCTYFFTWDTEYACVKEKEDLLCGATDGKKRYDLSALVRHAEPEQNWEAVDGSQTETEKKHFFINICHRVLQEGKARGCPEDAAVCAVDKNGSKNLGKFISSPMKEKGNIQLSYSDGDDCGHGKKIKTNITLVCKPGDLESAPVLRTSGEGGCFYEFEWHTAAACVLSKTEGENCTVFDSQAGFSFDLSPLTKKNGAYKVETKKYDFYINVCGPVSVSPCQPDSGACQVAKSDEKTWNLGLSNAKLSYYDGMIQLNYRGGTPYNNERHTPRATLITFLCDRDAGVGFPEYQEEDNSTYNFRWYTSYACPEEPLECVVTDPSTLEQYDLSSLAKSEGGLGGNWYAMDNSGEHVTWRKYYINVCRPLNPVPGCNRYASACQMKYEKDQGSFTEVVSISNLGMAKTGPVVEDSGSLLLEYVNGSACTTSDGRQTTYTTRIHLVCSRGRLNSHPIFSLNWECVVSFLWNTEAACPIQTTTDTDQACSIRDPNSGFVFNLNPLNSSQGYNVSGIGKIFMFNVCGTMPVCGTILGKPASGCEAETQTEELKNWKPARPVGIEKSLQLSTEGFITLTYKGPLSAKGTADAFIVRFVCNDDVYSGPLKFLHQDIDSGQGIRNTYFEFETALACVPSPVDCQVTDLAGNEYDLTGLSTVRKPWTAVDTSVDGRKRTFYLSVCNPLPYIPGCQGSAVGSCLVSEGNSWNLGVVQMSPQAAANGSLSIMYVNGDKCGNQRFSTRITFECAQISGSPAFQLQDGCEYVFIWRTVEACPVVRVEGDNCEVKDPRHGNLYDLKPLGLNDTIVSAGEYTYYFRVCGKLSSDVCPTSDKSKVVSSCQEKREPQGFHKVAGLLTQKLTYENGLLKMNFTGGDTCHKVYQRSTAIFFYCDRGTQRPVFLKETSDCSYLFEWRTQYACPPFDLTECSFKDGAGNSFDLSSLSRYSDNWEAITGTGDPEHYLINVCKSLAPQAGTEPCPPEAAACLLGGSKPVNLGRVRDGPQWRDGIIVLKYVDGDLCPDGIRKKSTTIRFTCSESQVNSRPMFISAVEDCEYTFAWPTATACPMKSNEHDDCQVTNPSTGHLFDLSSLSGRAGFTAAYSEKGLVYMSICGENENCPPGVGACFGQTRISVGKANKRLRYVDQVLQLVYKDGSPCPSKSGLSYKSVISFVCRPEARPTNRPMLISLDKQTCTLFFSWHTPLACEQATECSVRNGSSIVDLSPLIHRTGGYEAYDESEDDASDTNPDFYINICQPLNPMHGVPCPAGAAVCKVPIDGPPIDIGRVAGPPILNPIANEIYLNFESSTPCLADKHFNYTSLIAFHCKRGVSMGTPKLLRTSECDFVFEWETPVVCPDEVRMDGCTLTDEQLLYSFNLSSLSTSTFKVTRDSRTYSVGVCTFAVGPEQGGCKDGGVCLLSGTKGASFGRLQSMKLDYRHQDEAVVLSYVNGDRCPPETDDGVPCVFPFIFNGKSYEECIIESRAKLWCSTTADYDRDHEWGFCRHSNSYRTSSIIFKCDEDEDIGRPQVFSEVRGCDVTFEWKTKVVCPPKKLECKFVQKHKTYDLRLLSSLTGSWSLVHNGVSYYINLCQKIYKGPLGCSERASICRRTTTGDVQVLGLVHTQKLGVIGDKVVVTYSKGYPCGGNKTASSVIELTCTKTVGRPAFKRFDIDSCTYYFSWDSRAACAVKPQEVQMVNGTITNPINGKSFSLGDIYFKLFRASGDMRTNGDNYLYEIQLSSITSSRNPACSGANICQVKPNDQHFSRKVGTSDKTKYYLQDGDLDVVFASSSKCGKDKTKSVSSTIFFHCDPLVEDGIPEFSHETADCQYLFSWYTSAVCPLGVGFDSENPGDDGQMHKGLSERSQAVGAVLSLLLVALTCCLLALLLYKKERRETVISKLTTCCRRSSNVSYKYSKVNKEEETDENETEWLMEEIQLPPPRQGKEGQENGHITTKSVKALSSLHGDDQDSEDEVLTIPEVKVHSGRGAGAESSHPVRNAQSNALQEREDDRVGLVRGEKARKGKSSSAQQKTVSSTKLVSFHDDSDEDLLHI

BMAX, IGF-II binding (Braak 0-1): 16.83 | BMAX, IGF-II binding (Braak 2-3): 12.53 | BMAX, IGF-II binding (Braak 4-5): 8.136 | BMAX, IGF-II binding (Braak 6): 4.713
Substance: IGF-II: [125I]-labeled IGF-II used as tracer in brain membrane binding assays
